In PMC4878814, “Mechanism of Human Nucleocytoplasmic Hexosaminidase D” (Biochemistry, 2016):

What was measured:
hexosaminidase D (HexD) = target: T1, hexosaminidase D (HexD) (Homo sapiens, UniProt Q8WVB3); experiment: inhibition of purified enzyme hydrolysis of PNP-GalNAc, absorbance, Lineweaver-Burk and nonlinear regression; type: biochemical
T1 construct: human HexD in pET30a vector, expressed in E. coli BL21(DE3)
T1 sequence (Q8WVB3 1-486): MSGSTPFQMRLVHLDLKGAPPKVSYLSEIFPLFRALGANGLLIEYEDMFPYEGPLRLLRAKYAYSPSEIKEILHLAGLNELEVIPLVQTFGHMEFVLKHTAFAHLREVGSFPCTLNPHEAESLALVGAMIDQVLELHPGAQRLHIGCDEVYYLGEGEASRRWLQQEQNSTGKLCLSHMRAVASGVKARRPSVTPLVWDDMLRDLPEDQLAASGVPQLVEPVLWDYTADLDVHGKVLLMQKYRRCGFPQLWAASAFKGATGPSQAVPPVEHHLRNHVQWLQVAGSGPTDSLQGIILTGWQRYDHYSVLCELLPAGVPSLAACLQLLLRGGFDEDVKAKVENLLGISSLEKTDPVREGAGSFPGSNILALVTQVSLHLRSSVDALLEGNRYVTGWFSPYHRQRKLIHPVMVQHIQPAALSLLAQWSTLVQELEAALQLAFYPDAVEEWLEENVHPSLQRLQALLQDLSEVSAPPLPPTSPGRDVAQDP

murine HexD = target: T2, murine HexD (Mus musculus, UniProt Q3U4H6); experiment: enzyme inhibition, preliminary studies (data not shown); type: biochemical
T2 sequence (Q3U4H6 1-486): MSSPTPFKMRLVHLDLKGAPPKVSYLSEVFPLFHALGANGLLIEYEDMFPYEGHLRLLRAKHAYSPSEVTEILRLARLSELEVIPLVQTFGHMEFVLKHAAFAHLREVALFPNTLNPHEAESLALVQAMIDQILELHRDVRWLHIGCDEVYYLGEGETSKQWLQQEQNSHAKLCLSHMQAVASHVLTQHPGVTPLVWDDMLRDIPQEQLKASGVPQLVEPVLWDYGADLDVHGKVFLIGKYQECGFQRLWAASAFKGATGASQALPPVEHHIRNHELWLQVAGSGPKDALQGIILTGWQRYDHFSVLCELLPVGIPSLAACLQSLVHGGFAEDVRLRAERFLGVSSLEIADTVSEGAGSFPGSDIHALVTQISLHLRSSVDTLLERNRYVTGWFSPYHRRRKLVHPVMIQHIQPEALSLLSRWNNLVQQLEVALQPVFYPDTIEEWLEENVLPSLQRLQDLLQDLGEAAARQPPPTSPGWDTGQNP

[1] = substrate: CC(=O)N[C@H]1[C@H](Oc2ccc([N+](=O)[O-])cc2)O[C@H](CO)[C@H](O)[C@@H]1O; experiment: Michaelis-Menten kinetics of hydrolysis by purified enzyme (KM); hydrolysis also followed by 1H NMR; type: biochemical, Homo sapiens; details: active site; Asp148 polarizing residue, Glu149 general acid/base
purified protein [2] = substrate: O=C(N[C@H]1[C@H](Oc2ccc([N+](=O)[O-])cc2)O[C@H](CO)[C@H](O)[C@@H]1O)C(F)F; experiment: purified protein
purified protein [3] = substrate: CC(=O)N[C@H]1[C@H](Oc2ccc([N+](=O)[O-])c(F)c2)O[C@H](CO)[C@H](O)[C@@H]1O; experiment: purified protein
purified protein [4] = substrate: O=C(N[C@H]1[C@H](Oc2ccc([N+](=O)[O-])cc2)O[C@H](CO)[C@H](O)[C@@H]1O)C(F)(F)F; experiment: purified protein
purified protein [5] = substrate: CC(=O)N[C@H]1[C@H](Oc2ccc([N+](=O)[O-])cc2)O[C@H](CO)[C@@H](O)[C@@H]1O; experiment: purified protein
purified protein [6] = substrate: CC(=O)N[C@H]1[C@H](Oc2ccc([N+](=O)[O-])c(F)c2)O[C@H](CO)[C@@H](O)[C@@H]1O; experiment: purified protein
purified protein [7] = substrate: O=C(CF)N[C@H]1[C@H](Oc2ccc([N+](=O)[O-])cc2)O[C@H](CO)[C@H](O)[C@@H]1O; experiment: purified protein

For CC1=N[C@@H]2[C@@H](O)[C@@H](O)[C@@H](CO)O[C@@H]2S1 [compound 4, Gal-NAG-thiazoline], the Ki (hexosaminidase D (HexD)) was 420 nM and the Ki (murine HexD) was 520 nM.

B1: hexosaminidase D (HexD) (Homo sapiens) (protein)
chain: MSGSTPFQMRLVHLDLKGAPPKVSYLSEIFPLFRALGANGLLIEYEDMFPYEGPLRLLRAKYAYSPSEIKEILHLAGLNELEVIPLVQTFGHMEFVLKHTAFAHLREVGSFPCTLNPHEAESLALVGAMIDQVLELHPGAQRLHIGCDEVYYLGEGEASRRWLQQEQNSTGKLCLSHMRAVASGVKARRPSVTPLVWDDMLRDLPEDQLAASGVPQLVEPVLWDYTADLDVHGKVLLMQKYRRCGFPQLWAASAFKGATGPSQAVPPVEHHLRNHVQWLQVAGSGPTDSLQGIILTGWQRYDHYSVLCELLPAGVPSLAACLQLLLRGGFDEDVKAKVENLLGISSLEKTDPVREGAGSFPGSNILALVTQVSLHLRSSVDALLEGNRYVTGWFSPYHRQRKLIHPVMVQHIQPAALSLLAQWSTLVQELEAALQLAFYPDAVEEWLEENVHPSLQRLQALLQDLSEVSAPPLPPTSPGRDVAQDP
notes: human HexD in pET30a vector, expressed in E. coli BL21(DE3)
With B1 the Km [1] was 72.1 ± 4.8 µM, the kcat [1] was 1.32 ± 0.02 s⁻¹ and the kcat/Km [1] was 18200 ± 1250 M⁻¹ s⁻¹. It also gave a Km (purified protein [2]) of 102 ± 16 µM, a kcat (purified protein [2]) of 0.27 ± 0.0108 s⁻¹ and a kcat/Km (purified protein [2]) of 2650 ± 417 M⁻¹ s⁻¹. The Km (purified protein [3]) was 172 ± 19 µM, the kcat (purified protein [3]) was 2.03 ± 0.065 s⁻¹ and the kcat/Km (purified protein [3]) was 11800 ± 1350 M⁻¹ s⁻¹. It also gave a Km (purified protein [4]) of 103 ± 27 µM, a kcat (purified protein [4]) of 0.042 ± 0.00283 s⁻¹ and a kcat/Km (purified protein [4]) of 408 ± 108 M⁻¹ s⁻¹. The Km (purified protein [5]) was 607 ± 53 µM, the kcat (purified protein [5]) was 0.507 ± 0.0148 s⁻¹ and the kcat/Km (purified protein [5]) was 835 ± 76.7 M⁻¹ s⁻¹. The Km (purified protein [6]) was 852 ± 54 µM, the kcat (purified protein [6]) was 1.54 ± 0.045 s⁻¹ and the kcat/Km (purified protein [6]) was 1820 ± 127 M⁻¹ s⁻¹. The Km (purified protein [7]) was 533 ± 17 µM, the kcat (purified protein [7]) was 2.6 ± 0.0317 s⁻¹ and the kcat/Km (purified protein [7]) was 4980 ± 183 M⁻¹ s⁻¹.
